How the values were obtained:
Test in all cases: anti-HA co-IP from muscle, MS; CTRL 0
[1] = biological target: ATP-binding cassette sub-family C member 9 (Mus musculus) (UniProt P70170)
[2] = biological target: ATP-binding cassette sub-family F member 2 (Mus musculus) (UniProt Q99LE6)
[3] = biological target: Acetyl-CoA acetyltransferase, mitochondrial (Mus musculus) (UniProt Q8QZT1)
[4] = biological target: Actin-binding LIM protein 2 (Mus musculus) (UniProt Q8BL65)
Ankyrin-1 (Mus musculus) = Ankyrin-1 (Mus musculus) (UniProt Q02357)
Ankyrin-3 (Mus musculus) = Ankyrin-3 (Mus musculus) (UniProt G5E8K5)
[5] = biological target: BAG family molecular chaperone regulator 2 (Mus musculus) (UniProt Q91YN9)
[6] = biological target: Bifunctional purine biosynthesis protein ATIC (Mus musculus) (UniProt Q9CWJ9)
[7] = biological target: CDP-diacylglycerol--inositol 3-phosphatidyltransferase (Mus musculus) (UniProt Q8VDP6)
[8] = biological target: Calcium/calmodulin-dependent protein kinase type II subunit gamma (Mus musculus) (UniProt Q923T9)
[9] = biological target: Coatomer subunit epsilon (Mus musculus) (UniProt O89079)
[10] = biological target: Delta-sarcoglycan (Mus musculus) (UniProt P82347)
[11] = biological target: Dystroglycan (Mus musculus) (UniProt Q62165)
Elongin-A (Mus musculus) = Elongin-A (Mus musculus) (UniProt Q8CB77)
Emerin (Mus musculus) = Emerin (Mus musculus) (UniProt O08579)
[12] = biological target: Eukaryotic initiation factor 4A-III (Mus musculus) (UniProt Q91VC3)
[13] = biological target: Extended synaptotagmin-2 (Mus musculus) (UniProt Q3TZZ7)
[14] = biological target: Fatty acid-binding protein, adipocyte (Mus musculus) (UniProt P04117)
[15] = biological target: GTP-binding protein SAR1b (Mus musculus) (UniProt Q9CQC9)
[16] = biological target: Gamma-sarcoglycan (Mus musculus) (UniProt P82348)
[17] = biological target: Heparin cofactor 2 (Mus musculus) (UniProt P49182)
[18] = biological target: Indolethylamine N-methyltransferase (Mus musculus) (UniProt P40936)
[19] = biological target: Keratin, type II cytoskeletal 7 (Mus musculus) (UniProt Q9DCV7)
[20] = biological target: Microtubule-associated protein 4 (Mus musculus) (UniProt P27546)
[21] = biological target: Multidrug resistance-associated protein 1 (Mus musculus) (UniProt O35379)
[22] = biological target: NEDD8-conjugating enzyme Ubc12 (Mus musculus) (UniProt P61082)
[23] = biological target: Nuclear mitotic apparatus protein 1 (Mus musculus) (UniProt E9Q7G0)
[24] = biological target: Nucleolar and coiled-body phosphoprotein 1 (Mus musculus) (UniProt E9Q5C9)
[25] = biological target: Nucleolar protein 12 (Mus musculus) (UniProt Q8BG17)
[26] = biological target: Nucleolar protein of 40 kDa (Mus musculus) (UniProt Q9ESX4)
[27] = biological target: Platelet glycoprotein 4 (Mus musculus) (UniProt Q08857)
[28] = biological target: Proliferation-associated protein 2G4 (Mus musculus) (UniProt P50580)
[29] = biological target: SUN domain-containing protein 2 (Mus musculus) (UniProt Q8BJS4)
[30] = biological target: Sodium/potassium-transporting ATPase subunit alpha-1 (Mus musculus) (UniProt Q8VDN2)
[31] = biological target: Solute carrier family 12 member 1 (Mus musculus) (UniProt P55014)
[32] = biological target: Solute carrier family 12 member 2 (Mus musculus) (UniProt P55012)
[33] = biological target: Spectrin alpha chain, erythrocytic 1 (Mus musculus) (UniProt P08032)
[34] = biological target: Translocation protein SEC62 (Mus musculus) (UniProt Q8BU14)
[35] = biological target: Transmembrane protein 43 (Mus musculus) (UniProt Q9DBS1)

Chain of Elongin-A (Mus musculus) (Q8CB77 whole entry): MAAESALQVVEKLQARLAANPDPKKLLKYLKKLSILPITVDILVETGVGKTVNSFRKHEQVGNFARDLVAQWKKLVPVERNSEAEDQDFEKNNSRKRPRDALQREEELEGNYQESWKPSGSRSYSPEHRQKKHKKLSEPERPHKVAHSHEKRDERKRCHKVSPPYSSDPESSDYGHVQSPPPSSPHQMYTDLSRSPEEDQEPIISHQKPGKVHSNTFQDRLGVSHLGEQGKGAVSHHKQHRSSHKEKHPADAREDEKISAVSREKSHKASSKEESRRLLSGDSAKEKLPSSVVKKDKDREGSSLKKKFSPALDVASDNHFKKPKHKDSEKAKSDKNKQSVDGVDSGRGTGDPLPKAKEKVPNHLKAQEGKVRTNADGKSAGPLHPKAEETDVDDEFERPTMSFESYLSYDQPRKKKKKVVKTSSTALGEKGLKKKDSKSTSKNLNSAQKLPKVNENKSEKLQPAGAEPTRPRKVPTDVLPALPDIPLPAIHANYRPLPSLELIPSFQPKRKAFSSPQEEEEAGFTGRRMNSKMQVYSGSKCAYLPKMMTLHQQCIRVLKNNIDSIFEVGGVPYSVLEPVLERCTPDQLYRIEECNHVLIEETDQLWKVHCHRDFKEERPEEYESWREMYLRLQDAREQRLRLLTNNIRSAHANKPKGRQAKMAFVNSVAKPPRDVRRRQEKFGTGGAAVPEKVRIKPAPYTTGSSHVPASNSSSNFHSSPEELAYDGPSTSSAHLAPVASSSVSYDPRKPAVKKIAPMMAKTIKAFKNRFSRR
Chain of Solute carrier family 12 member 1 (Mus musculus) (P55014 whole entry): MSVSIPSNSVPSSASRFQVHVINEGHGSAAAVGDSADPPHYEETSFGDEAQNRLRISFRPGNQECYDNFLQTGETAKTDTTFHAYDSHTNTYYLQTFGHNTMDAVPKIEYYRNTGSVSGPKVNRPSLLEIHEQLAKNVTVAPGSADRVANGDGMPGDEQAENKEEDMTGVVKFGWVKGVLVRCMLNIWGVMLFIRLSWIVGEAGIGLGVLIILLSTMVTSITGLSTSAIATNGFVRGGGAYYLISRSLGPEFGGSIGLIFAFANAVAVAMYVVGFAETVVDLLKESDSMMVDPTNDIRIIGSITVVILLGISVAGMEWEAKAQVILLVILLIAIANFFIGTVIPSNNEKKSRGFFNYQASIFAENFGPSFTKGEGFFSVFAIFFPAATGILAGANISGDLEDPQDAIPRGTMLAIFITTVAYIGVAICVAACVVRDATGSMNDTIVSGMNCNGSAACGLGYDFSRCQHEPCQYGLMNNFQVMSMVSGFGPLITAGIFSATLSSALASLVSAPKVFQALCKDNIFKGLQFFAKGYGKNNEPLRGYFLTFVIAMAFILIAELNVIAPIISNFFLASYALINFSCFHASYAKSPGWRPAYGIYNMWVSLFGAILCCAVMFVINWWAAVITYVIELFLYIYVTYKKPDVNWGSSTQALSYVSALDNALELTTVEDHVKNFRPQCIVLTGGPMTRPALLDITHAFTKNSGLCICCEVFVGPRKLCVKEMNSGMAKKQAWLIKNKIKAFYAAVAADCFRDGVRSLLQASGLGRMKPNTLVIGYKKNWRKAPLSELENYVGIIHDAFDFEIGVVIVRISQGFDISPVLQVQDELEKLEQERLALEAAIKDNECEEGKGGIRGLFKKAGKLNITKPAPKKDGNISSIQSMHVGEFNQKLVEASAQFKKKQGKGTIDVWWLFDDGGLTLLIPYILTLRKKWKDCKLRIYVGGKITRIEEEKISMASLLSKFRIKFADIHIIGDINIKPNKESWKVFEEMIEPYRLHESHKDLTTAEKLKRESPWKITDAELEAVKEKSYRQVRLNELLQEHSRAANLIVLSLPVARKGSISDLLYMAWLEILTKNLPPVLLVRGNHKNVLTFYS
Chain of Coatomer subunit epsilon (Mus musculus) (O89079 whole entry): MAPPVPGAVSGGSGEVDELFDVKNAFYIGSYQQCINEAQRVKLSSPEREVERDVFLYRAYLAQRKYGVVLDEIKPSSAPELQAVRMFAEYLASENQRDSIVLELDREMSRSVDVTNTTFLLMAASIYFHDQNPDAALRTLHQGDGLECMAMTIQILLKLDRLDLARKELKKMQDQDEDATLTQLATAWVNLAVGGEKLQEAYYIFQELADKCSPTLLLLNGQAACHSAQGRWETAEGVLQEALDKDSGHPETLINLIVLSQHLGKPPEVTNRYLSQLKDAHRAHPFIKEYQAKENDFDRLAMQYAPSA
Chain of ATP-binding cassette sub-family F member 2 (Mus musculus) (Q99LE6 whole entry): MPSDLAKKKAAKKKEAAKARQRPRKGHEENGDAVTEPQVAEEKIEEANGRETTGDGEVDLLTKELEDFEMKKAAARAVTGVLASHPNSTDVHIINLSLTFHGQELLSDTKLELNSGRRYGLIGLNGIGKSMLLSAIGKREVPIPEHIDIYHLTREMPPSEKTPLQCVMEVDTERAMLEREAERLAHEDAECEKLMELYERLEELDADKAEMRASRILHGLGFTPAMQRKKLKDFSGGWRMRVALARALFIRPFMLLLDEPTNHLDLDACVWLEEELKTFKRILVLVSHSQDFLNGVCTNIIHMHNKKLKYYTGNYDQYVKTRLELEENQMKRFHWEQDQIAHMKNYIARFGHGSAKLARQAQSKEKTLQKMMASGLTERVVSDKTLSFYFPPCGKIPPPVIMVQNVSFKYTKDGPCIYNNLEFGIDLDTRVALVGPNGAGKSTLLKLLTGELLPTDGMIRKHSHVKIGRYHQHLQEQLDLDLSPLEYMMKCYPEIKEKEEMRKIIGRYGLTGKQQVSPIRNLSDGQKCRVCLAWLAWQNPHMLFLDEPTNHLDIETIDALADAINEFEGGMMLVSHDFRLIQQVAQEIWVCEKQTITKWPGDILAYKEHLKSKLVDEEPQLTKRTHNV
Chain of Delta-sarcoglycan (Mus musculus) (P82347 whole entry, stated change not applied): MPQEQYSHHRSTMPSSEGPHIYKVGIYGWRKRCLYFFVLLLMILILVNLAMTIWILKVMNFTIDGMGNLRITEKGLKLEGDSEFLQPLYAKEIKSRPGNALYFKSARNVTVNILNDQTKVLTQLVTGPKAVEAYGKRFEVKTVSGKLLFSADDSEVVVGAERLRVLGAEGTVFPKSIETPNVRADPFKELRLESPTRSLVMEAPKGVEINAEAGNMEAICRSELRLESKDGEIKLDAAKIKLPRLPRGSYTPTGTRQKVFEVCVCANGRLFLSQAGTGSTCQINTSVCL
Chain of GTP-binding protein SAR1b (Mus musculus) (Q9CQC9 whole entry): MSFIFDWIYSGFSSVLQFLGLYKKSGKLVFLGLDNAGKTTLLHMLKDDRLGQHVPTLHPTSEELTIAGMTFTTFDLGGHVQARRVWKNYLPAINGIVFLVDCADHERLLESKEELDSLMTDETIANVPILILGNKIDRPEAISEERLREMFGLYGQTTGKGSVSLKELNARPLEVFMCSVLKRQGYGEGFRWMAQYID
Chain of Heparin cofactor 2 (Mus musculus) (P49182 24-478 limits assumed): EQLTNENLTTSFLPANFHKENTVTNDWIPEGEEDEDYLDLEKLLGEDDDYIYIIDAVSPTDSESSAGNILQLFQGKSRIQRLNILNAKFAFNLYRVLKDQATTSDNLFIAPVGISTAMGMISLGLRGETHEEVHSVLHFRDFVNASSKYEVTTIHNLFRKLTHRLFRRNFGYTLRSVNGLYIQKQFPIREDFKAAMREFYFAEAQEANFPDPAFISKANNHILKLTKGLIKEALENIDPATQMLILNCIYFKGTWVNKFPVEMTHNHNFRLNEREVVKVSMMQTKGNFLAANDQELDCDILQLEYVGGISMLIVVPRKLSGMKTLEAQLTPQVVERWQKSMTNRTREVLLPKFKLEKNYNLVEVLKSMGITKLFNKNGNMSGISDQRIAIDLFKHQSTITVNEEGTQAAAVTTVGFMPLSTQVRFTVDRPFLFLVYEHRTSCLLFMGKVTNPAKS
Chain of Indolethylamine N-methyltransferase (Mus musculus) (P40936 whole entry): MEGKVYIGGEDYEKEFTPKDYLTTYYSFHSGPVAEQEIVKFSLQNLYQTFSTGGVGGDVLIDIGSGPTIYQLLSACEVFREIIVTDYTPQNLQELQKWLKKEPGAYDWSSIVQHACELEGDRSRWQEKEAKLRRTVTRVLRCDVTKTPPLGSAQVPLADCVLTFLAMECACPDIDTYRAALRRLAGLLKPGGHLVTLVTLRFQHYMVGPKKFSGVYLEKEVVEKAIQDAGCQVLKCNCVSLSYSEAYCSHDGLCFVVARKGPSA
Chain of CDP-diacylglycerol--inositol 3-phosphatidyltransferase (Mus musculus) (Q8VDP6 whole entry): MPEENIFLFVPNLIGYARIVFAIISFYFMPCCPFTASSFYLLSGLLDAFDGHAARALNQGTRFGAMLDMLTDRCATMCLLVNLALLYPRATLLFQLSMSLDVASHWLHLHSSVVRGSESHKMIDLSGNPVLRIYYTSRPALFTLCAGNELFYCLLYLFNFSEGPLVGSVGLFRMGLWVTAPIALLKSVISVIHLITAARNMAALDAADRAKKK
Chain of Acetyl-CoA acetyltransferase, mitochondrial (Mus musculus) (Q8QZT1 31-424 limits assumed): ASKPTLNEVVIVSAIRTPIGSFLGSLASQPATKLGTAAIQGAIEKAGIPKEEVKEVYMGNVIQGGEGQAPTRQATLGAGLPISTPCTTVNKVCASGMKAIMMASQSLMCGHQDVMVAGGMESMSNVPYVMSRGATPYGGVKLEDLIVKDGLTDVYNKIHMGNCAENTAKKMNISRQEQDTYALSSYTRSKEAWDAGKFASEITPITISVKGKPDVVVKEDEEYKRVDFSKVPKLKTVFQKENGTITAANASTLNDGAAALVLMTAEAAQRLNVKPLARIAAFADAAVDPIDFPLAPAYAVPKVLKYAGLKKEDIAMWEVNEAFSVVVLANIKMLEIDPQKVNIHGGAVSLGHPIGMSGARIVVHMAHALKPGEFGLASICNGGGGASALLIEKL
Chain of BAG family molecular chaperone regulator 2 (Mus musculus) (Q91YN9 2-210 limits assumed): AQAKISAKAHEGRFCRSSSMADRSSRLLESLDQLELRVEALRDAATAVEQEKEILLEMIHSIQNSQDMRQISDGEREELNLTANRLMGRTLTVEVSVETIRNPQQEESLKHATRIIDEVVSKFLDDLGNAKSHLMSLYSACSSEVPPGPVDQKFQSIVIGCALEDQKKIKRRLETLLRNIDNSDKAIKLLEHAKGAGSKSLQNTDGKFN

AAV9-BVES-HA (IP-MS count) [1]: 14
AAV9-BVES-HA (IP-MS count) [2]: 2
AAV9-BVES-HA (IP-MS count) [3]: 5
AAV9-BVES-HA (IP-MS count) [4]: 2
AAV9-BVES-HA (IP-MS count) (Ankyrin-1 (Mus musculus)): 31
AAV9-BVES-HA (IP-MS count) (Ankyrin-3 (Mus musculus)): 242
AAV9-BVES-HA (IP-MS count) [5]: 6
AAV9-BVES-HA (IP-MS count) [6]: 3
AAV9-BVES-HA (IP-MS count) [7]: 2
AAV9-BVES-HA (IP-MS count) [8]: 13
AAV9-BVES-HA (IP-MS count) [9]: 2
AAV9-BVES-HA (IP-MS count) [10]: 5
AAV9-BVES-HA (IP-MS count) [11]: 4
AAV9-BVES-HA (IP-MS count) (Elongin-A (Mus musculus)): 3
AAV9-BVES-HA (IP-MS count) (Emerin (Mus musculus)): 6
AAV9-BVES-HA (IP-MS count) [12]: 3
AAV9-BVES-HA (IP-MS count) [13]: 2
AAV9-BVES-HA (IP-MS count) [14]: 2
AAV9-BVES-HA (IP-MS count) [15]: 3
AAV9-BVES-HA (IP-MS count) [16]: 5
AAV9-BVES-HA (IP-MS count) [17]: 4
AAV9-BVES-HA (IP-MS count) [18]: 2
AAV9-BVES-HA (IP-MS count) [19]: 17
AAV9-BVES-HA (IP-MS count) [20]: 2
AAV9-BVES-HA (IP-MS count) [21]: 2
AAV9-BVES-HA (IP-MS count) [22]: 2
AAV9-BVES-HA (IP-MS count) [23]: 2
AAV9-BVES-HA (IP-MS count) [24]: 3
AAV9-BVES-HA (IP-MS count) [25]: 2
AAV9-BVES-HA (IP-MS count) [26]: 2
AAV9-BVES-HA (IP-MS count) [27]: 2
AAV9-BVES-HA (IP-MS count) [28]: 7
AAV9-BVES-HA (IP-MS count) [29]: 14
AAV9-BVES-HA (IP-MS count) [30]: 12
AAV9-BVES-HA (IP-MS count) [31]: 2
AAV9-BVES-HA (IP-MS count) [32]: 3
AAV9-BVES-HA (IP-MS count) [33]: 27
AAV9-BVES-HA (IP-MS count) [34]: 2
AAV9-BVES-HA (IP-MS count) [35]: 2
Substance: human BVES fused with 3xHA tag (from UniProt Q8NE79 1-360)

From US20250340902A1, “GENE THERAPY FOR BVES-RELATED DISORDERS” (OHIO STATE INNOVATION FOUNDATION, priority 2022, published 2025)
